FAM = fluorescein label
Biological target: WT PKCβII catalytic domain (UniProt P05771-2 321-673, primed (phosphorylated) at the three PKC priming sites (T-loop, turn motif, hydrophobic motif))
Assay: FP; representative curve

Chain of WT PKCβII catalytic domain (P05771 other isoform, or with tags, fused parts or gaps): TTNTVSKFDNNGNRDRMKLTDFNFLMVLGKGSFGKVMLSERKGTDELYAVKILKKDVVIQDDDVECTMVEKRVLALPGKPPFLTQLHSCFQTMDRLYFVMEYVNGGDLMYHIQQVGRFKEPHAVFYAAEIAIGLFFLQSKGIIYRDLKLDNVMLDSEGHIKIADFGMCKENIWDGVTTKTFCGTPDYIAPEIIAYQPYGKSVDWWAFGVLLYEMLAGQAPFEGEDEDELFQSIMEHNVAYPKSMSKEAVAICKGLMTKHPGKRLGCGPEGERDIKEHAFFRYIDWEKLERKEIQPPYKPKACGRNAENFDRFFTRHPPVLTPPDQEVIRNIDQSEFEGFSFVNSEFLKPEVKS

{FAM}-ESTVRFARKGSLRQKNVH-NH2 [Fluorescein-PSS peptide]
Kd: 39 µM

From publication PMC12687424 (2025)
